In patent US20030044858A1 (Genentech, published 2003):

Columns and labels:
[1] = target: FCEH-bound IgE (human IgE held on FcεRI) (human, UniProt P01854 1-546; P12319 26-257); assay: cell-based or functional assay
[2] = target: T1, membrane IgE on U266 B1 cells (human, UniProt P01854 1-546); assay: FACS on U266 B1 cells (membrane IgE+)
T1 construct: whole, on cells; also called Membrane IgE on U266BL; mIgE
Protocol: c. […] Cells are added to 400 μl FACS buffer containing propidium iodide at 2 μg/ml to stain dead cells.

[3] = target: T2, human IgE (U266 IgE) (human, UniProt P01854 1-546); assay: 50% inhibition of IgE binding to FCEH (assay taken as that of Table 9)
T2 construct: mature; Purified from U266B1 cells or recombinant from 293 cells; the Scatchard assay used iodinated IgE of ND and PS allotypes; P01854 covers the constant region only; also called huIgE; U266 IgE standard
T2 sequence (P01854 whole entry): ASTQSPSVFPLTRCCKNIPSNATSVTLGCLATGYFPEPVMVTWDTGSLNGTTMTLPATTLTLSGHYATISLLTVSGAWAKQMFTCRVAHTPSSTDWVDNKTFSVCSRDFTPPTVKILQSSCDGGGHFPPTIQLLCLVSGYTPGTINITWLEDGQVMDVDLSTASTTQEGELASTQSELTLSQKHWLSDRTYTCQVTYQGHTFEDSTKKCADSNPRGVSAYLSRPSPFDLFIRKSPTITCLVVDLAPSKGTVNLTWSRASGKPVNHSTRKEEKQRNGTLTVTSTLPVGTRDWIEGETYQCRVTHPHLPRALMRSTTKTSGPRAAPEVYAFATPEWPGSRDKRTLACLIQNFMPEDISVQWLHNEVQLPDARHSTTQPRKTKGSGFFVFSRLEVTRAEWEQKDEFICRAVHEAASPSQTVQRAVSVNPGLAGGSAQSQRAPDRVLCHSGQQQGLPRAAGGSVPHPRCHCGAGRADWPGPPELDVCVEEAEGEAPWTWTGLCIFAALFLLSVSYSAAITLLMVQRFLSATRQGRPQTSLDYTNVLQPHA
Protocol: (§1) A 96-well assay plate (Manufn Nunc.) was coated with 0.05 ml of the FcεRI alpha chain IgG1 chimeric receptor in 1 μg/ml coating buffer ([…] carbonate/bicarbonate, pH 9.6). Assay was done for 12 hours at 4-8° C. The wells were aspirated and 250 μl blocking buffer (PBS—1% BSA pH 7.2) was added and incubated for one hour at 4° C. […] The FcεRI-coated wells were washed three times with PBS-0.05% Tween20, and then 50 μl from the sample wells were transferred and incubated with agitation for 30 minutes at 25° C. 50 μl/well of streptavidin-HRP diluted 1:5000 in assay buffer was incubated for 15 minutes with agitation and then the plate was washed as before. 50 μl/well of Microwell peroxidase substrate (Kirkgaard & Parry Laboratories) was added and color was developed for 30 minutes. The reaction was stopped by adding an equal volume of 1 normal HCl and the adsorbance measured at 450 nm.

[4] = target: T2, human IgE (U266 IgE); assay: ratio of 50% inhibition concentrations
Protocol: as §1

T1 sequence (P01854 whole entry): as above
FCEH-bound IgE (human IgE held on FcεRI), sequence (P01854 whole entry, chain 1 of 2): as the sequence (P01854 whole entry) above
FCEH-bound IgE (human IgE held on FcεRI), sequence (P12319 26-257, chain 2 of 2): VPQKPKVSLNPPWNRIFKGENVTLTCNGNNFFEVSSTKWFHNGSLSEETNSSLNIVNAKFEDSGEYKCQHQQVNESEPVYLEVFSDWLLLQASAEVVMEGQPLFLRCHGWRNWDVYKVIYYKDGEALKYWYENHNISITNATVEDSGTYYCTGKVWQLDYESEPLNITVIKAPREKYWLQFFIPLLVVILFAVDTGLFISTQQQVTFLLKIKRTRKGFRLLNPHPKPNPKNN

| Binder | PBL Histamine Release (EC50) [1] [µg/mL] | EC50 [2] [µg/mL] | IC50 [3] [µg/mL] | Var. X / IgL1H1 [4] [ratio] | Var. X / MaE11 [4] [ratio] |
| --- | --- | --- | --- | --- | --- |
| MaE 13 murine anti-human IgE monoclonal antibody (antibody, murine IgG1; may hold only the variable regions) heavy: DVQLQESGPGLVKPSQSLSLTCTVTGYTITSDNAWNWIRQFPGNKLEWMGYINHSGTTSYNPSLKSRISITRDTSKNQFFLQLNSVTTEDTATYYCAWVVAYAMDYWGQGTSVTVSSAKTTPPSVYPLAR light: DIVMTQSQKFMSTSVGDRVSVTCKASQNVSSNVAWYQQKPGQSPKALIYSASYRYSGVPDRFTGSGSGTDFTLTISNVQSEDLAEYFCQQYYTYPLYTFGGGTKLEIKRADAAPTVSIFPPSTR | > 10 | 1 |  |  |  |
| MaE 11 murine anti-human IgE monoclonal antibody (antibody, murine IgG1; they may hold only the variable regions) heavy: DVQLQESGPGLVKPSQSLSLACSVTGYSITSGYSWNWIRQFPGNKLEWMGSITYDGSSNYNPSLKNRISVTRDTSQNQFFLKLNSATAEDTATYYCARGSHYFGHWHFAVWGAGTTVTVSSAKTTPPSVYPLAR light: DIVLTQSPASLAVSLGQRATISCKASQSVDYDGDSYMNWYQQKPGQPPILLIYAASYLGSEIPARFSGSGSGTDFTLNIHPVEEEDAATFYCQQSHEDPYTFGAGTKLEIK | > 100 | 0.15 | 0.449 | 0.06 | 1 |
